# B1: TPR t1 (parent)
# chain: GACCAAUCUGCCCUCAGAGCUCGAGAACAUCUUCGGAUGCAGAGGAGGCAGGCUUCGGUGGCGCGAUAGCGCCAACGUCCUCAACCUCCAAUGCAUCCCACCACAUGAUGAUGCCUGAAGAGCCUUGGUUUUUUG
# Variants of: B1
# Assay: polymerase ribozyme fitness, log enrichment relative to wild type (log ratio); higher = more active; in vitro selection for triplet polymerase activity
# In short: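 Genotype fitness is the logarithm of its enrichment divided by wild-type enrichment, using inverse-variance-weighted averages of replicates. That logarithm is base 2. Enrichment was measured by Illumina sequencing of input and output libraries from one triplicate in vitro selection round, with frozen incubation at −7 °C, on PCR-built, transcribed mutant libraries of each subunit of a heterodimeric triplet polymerase ribozyme, retaining genotypes with ≥10 input reads and ≥1 read per output.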
row,Variant,polymerase ribozyme fitness (log ratio)
1,GACAAAUCGGCCCUCAGAGCUCGAGAACAUCUUCGGAUGCAGAGGAGGCAGGCUUCGGUGGCGCGAUAGCGCCAACGUCCUCAACCUCCAAUGCAUCCCACCACAUGAUGAUGCCUGAAGAGCCUUGGUUUUUUG [C4A U9G],-0.689
2,GACGAAUGUGCCCUCAGAGCUCGAGAACAUCUUCGGAUGCAGAGGAGGCAGGCUUCGGUGGCGCGAUAGCGUCAACGUCCUCAACCUCCAAUGCAUCCCACCACAUGAUGAUGCCUGAAGGGCCUUGGUUUUUUG [C4G C8G C72U A121G],1.81
3,GACAAAUCUGCCCUCAGAGCUCGAGAACAUCUUCGGAUGCAGAGGAGGCAGGCUUCGGUGGCGCGAUAGCGCCAACGUCCUCAACCUCCAAUGCAUCCUACCACAUGAUGAUGCCUGAAGAGCCUUGGUUUUUUG [C4A C99U],-4.5
4,GACGAAUCUGCCCUCAGUGCUCGAGAACAUCUUCGGAUGCAGAGGAGGCAGGCUUCGGUGGCGCGAUAGCGCCAACGUCCUCAACCUCCAAUGCAUCCCACCACAUGAUGAUGCCUGAAGAGCCUUGGUUUUUUG [C4G A18U],-4.14
5,GACAAAUCUGCCCUCAGAGCUCGAGAACAUCUUCGGAUGCAGAGGAGGCAGGCUUCGGUGUCGCGAUAGCGCCAACGUCCUCAACCUCCAAUGCAUCCCACCACUUGAUGAUGCCUGAAGAGCCUUGGUUUUUUG [C4A G61U A105U],-4.13
6,GACGUAUCUGCCCUCAGAGCUCGAGAACAUCUUCGGAUGCAGAGGAGGCAGGCUUCGGUGGCGCGAUAGCGCCAACGUCCUCAACCUCCAAUGCAUCCCACCACAUGAUGAUGCCUGAAGAGCCUUGGUUUUUUG [C4G A5U],-2.76
7,GACAAAUCUGCCCUCAGAGCUCGAGAACAUCUUCGGAUGCAGAGGAGUCAGGCUUCGGUGCCGCGAUAGCGCCAACGUCCUCAACCUCUAAUGCAUCCCACCACAUGAUGAUGCCUGAAGGGCCUUGGUUUUUUG [C4A G48U G61C C89U A121G],-1.77
8,GACGAAUCUGGCCUCAGAGCUCGAGAACAUCUUCGGAUGAAGAGGAGGCAGGCUUCGGUAGCGCGAUAGCGCCAACGUCCUCAACCUCCAAUGCAUCCCAGCACACGAUGAUGCCUGAAGAGCCUUGGUUUUUUG [C4G C11G C40A G60A C101G U106C],-4.19
9,GACAAAGCUGCCCUCAGAGCUCGAGAACAUCUUCGGAUGCAGAGGAGGCAGGCUUCGGUGGCGCGAUACCGCCAACGUCCUCAACCUCCCAUGCAUCCCACCACAUGAUGACGCCUGAAGAGUCUUGGUUUUUUG [C4A U7G G69C A90C U112C C123U],-3.35
10,GACAAAUCAGCCCUCAGAGCUCGAGAACAUCUUCGGAUGCAGAGGAGGCAGGCUUCGGUGGCGUGAUAGCGCCAACGUCCUCAACCUCCAAUGCACCCCACCACAUGAUGAUGCCUGAAGAGCCUUGGUUUUUUG [C4A U9A C64U U96C],-0.963
11,GACGAAUCUGCCCUCGGAGCUCGAGAACAUCUUCGGAUGCAGAGGAGGCAGGCUUCGGUGGCGCGAUAGCGCCAACGUCCUCAACCUCCAAUGCAUUCCACCACAUGAUGAUGCCUGAAGAGUCUUAGUUUUUUG [C4G A16G C97U C123U G127A],-4.37
12,GACAAAUCUGCCCUCAGAGCUCGAGAACAUCUUCGGAUGCAGAGGAGGCAGGCUUCGGUGGCGCGAUAGCGCCAACGUCCUCAACCUCCAAUGCAUCCCACCACAUGAUGAUGCCUGAAGAGACUUGGUUUUUUG [C4A C123A],-0.283
13,GACAAAUCUGCCCUCAGAGCUCGAGAACAUCUUCGGAUGCAUAGGAGGCAGGCUUCGGUGGCGCGAUAUCGCCAACGUCCUCAACCUCCAAUGCAUCCCACCACAUGAUGAUGCCUGAAGAGCCUUGGUUUUUUG [C4A G42U G69U],-1.62
14,GACAAAUCUGCCCUCAGAGCUCGAGAACAUCUUCGGAUGCAGAGGAGGCAGGCUUCGGUGGCGCGAUAACGCCAACGUCCUCAACCUCCAAUGCAUCCCACCACAUGAUGAUGCCUGAAGAGCCUUGGUUUUUUG [C4A G69A],-4.36
15,GACGGAUCUGUCCUCAGAGCUCGAGAACAUCUUCGGAUGCAGAGGAGGCAGGCUUCGGUGGCGCGAUAGCGCGAACGUCCUCAACCUCAAAUGCAUCCCACCACAUGAUGAUUUCUGAAGAUCCUUGGGUUUUUG [C4G A5G C11U C73G C89A G113U C114U G122U U129G],-5.02
16,GACGUAUCUGCCCUCAGAGCUCGAGAACAUCUUCGGAUGCAGAGGAGGCAGGCUCCGGUGGCGCGAUAGCGCCAACGUCCUCAACCUCCAAUGCAUCCCACCACAUGAUGAUACCUGAAGAGCCUUGGUUUUUUG [C4G A5U U55C G113A],-4.56
17,GACGAAUCUGCCCUCAGAGCUCGAGAACAUCUUCGGGUGCAGAGGAGGGAGGCUUCGGUGGCGCGAUAGCGCCAACGUCCUCAACCUCCAAUGCAUCCCACCACAUGAUGAUCCCUGAAGAGCCUUGGUUUUUUG [C4G A37G C49G G113C],-4.25
18,GACGAAUCUGCACUAAGAGCUCGAGAACAUCUUCGGAUGCAGAGGAGGCAGGCUUCGGUGGCGCGAUAGCGCUAACGUCCUCAACCUCCAAUGAAUCCUACCACAUGAUCAUGCCUGAAGAGCCUUGGUUUUUUG [C4G C12A C15A C73U C94A C99U G110C],-7.24
19,GACGAAUCUGCACUCAGAGCUCGAGAACAUCUUCGGAUGCAGAGGAGGCAGGCUUCGGUGGCGCGAUAGCGCCAACGUCCUCAACCUCCAAUGCAUCCCACCACAUGAUGAUGCCUGAAGAGCCUUGGUUUUUUG [C4G C12A],-1.87
20,GACGAAUCUGCGCUCAGAGCUCGAGAACAUCUUCGGAUGCAGAGGAGGCAGGCUUCGGUGGCGCGAUAGCGCCAACGUCCUCAACCUCCAAUGCAUCCCACCACAUGAUGAUGCCUGAAGAGCCUUGGUUUUUUG [C4G C12G],-1.12
21,GACAAAUCUGCCCUCAGAGCUCGAGAACAUCUUCGGAUGCAGAGGAGGCAGGCUUCGGUGCCGCGAUAGCGCCAACGUCCUCAUCCUCCAAUGCAUCCCACCACAUGAUGAUGCCUGAAGAGCCUUGGUUUUUUG [C4A G61C A84U],-4.45

# Source: the RNAGym collection of RNA variant scans (doi:10.1073/pnas.2313332121)
